Source: publication PMC7110780, “Multimodular fused acetyl–feruloyl esterases from soil and gut Bacteroidetes improve xylanase depolymerization of recalcitrant biomass” (Biotechnology for Biofuels, 2020)

How the values were obtained:
Assay in all cases: purified protein
Assay type in all cases: biochemical, Flavobacterium johnsoniae
purified protein [1] = substrate: CC(=O)Oc1ccc2c(C)cc(=O)oc2c1; conditions: 100 mM buffer
purified protein [2] = substrate: COC(=O)/C=C/c1cc(OC)c(O)c(OC)c1; conditions: pH 6.5, 25 °C, 100 mM buffer
purified protein [3] = substrate: COC(=O)/C=C/c1ccc(O)c(OC)c1; conditions: pH 6.5, 25 °C, 100 mM buffer
purified protein [4] = substrate: COC(=O)/C=C/c1ccc(O)c(O)c1; conditions: pH 6.5, 25 °C, 100 mM buffer
purified protein [5] = substrate: COC(=O)/C=C/c1ccc(O)cc1; conditions: pH 6.5, 25 °C, 100 mM buffer

B1: FjCE6 (Flavobacterium johnsoniae UW101) (protein)
chain: SQDPNFHVYLSFGQSNMEGFAKIEPQDKTGVNERFQVLSAVDCPEMGREKGKWYTAVPPLCRCTTGLTPMDYFGRTMISNLPQNIKVGVVNVAVGGCKIELFDKNNFESYVANSPDWLKNIVKQYDGNPYGRLVEMAKIAQKKGVIKGILLHQGESNTGDTLWPQKVKIVYDNLIKDLNLDPKKVPLLSGETVNEDQNGKCGSMNKIIAKLPQVLPNSYIISSKGCKADADFLHFSPEGYRELGKRYADKMLSLSGYMLFNGKE
notes: domain borders not in main text
Km (purified protein [1]; pH 8, 25 °C): 150 ± 20 µM | kcat (purified protein [1]; pH 8, 25 °C): 6.7 ± 0.2 s⁻¹ | kcat/Km (purified protein [1]; pH 8, 25 °C): 43400 ± 4400 M⁻¹ s⁻¹

B2: FjCE1 (Flavobacterium johnsoniae UW101) (protein)
chain: FDEVNANAPQGKVEIVSYESKTVGSTRKATIYTPPGFNKNKKYPVLYLLHGIGGDEKEWLNGGQPNVILDNLYADGKLEPMIVVMPNGRAMKDDRAGGDIMAADKVKAFSVFEKDLLNDLIPFIEKKYPVLKDREHRAIAGLSMGGGQSLNFGLGNLDQFAWVGAFSAAPNTKIGTELLAKPEEAKKKLKLLWISCGDKDWLIENSTRTHDYLAKNNVPHIYYIEPGVHDFKVWKNGLYMFSQFLFKEVDPLVFQKYSISAYTIEK
notes: as for B1
Km (purified protein [1]; pH 6.5, 25 °C): 70 ± 10 µM | kcat (purified protein [1]; pH 6.5, 25 °C): 0.61 ± 0.03 s⁻¹ | kcat/Km (purified protein [1]; pH 6.5, 25 °C): 8700 ± 1700 M⁻¹ s⁻¹ | Km (purified protein [2]): 140 ± 20 µM | kcat (purified protein [2]): 1.8 ± 0.1 s⁻¹ | kcat/Km (purified protein [2]): 13000 ± 2200 M⁻¹ s⁻¹ | Km (purified protein [3]): 110 ± 20 µM | kcat (purified protein [3]): 2.5 ± 0.2 s⁻¹ | kcat/Km (purified protein [3]): 23100 ± 4500 M⁻¹ s⁻¹ | Km (purified protein [4]): 340 ± 100 µM | kcat (purified protein [4]): 0.83 ± 0.14 s⁻¹ | kcat/Km (purified protein [4]): 2700 ± 1000 M⁻¹ s⁻¹ | Km (purified protein [5]): 390 ± 120 µM | kcat (purified protein [5]): 1.5 ± 0.3 s⁻¹ | kcat/Km (purified protein [5]): 3900 ± 1400 M⁻¹ s⁻¹
